# Assay results: PMC9982066, “Inhibition of Ehrlichia chaffeensis infection by cell-permeable macrocyclic peptides that bind type IV secretion effector Etf-1” (PNAS Nexus, 2023)
# Starred links: 1 amine or outer side, 2 acyl side, 3 side chain; linkers in the order of their positions; H or OH if unused. Positions of bridges follow the written chain, without caps; N, C: chain ends. Non-standard residues stand in square brackets, D forms with d. No end group written: not given here. Trimesoyl = O=C(c1cc(C(=O)[*:2])cc(C(=O)[*:3])c1)[*:1]; Phe(3,4-Cl2) = N[C@@H](Cc1ccc(Cl)c(Cl)c1)C(=O)O; Phe(4-CF3) = N[C@@H](Cc1ccc(C(F)(F)F)cc1)C(=O)O; Phe(3-Cl) = N[C@@H](Cc1cccc(Cl)c1)C(=O)O; Phe(4-Cl) = N[C@@H](Cc1ccc(Cl)cc1)C(=O)O; Phe(4-F) = N[C@@H](Cc1ccc(F)cc1)C(=O)O; Phe(4-Me) = Cc1ccc(C[C@H](N)C(=O)O)cc1; 2Nal = N[C@@H](Cc1ccc2ccccc2c1)C(=O)O; d1Nal = N[C@H](Cc1cccc2ccccc12)C(=O)O; d2Nal = N[C@H](Cc1ccc2ccccc2c1)C(=O)O; βAsp = O=C(O)[C@H](CC(=O)[*:2])N[*:1]; hPhe = N[C@@H](CCc1ccccc1)C(=O)O; Phg = N[C@H](C(=O)O)c1ccccc1; Nle = CCCC[C@H](N)C(=O)O; Orn = NCCC[C@H](N)C(=O)O; Dap = NC[C@H](N)C(=O)O; TMA = not defined here; βAla = NCCC(=O)O
# B1: macrocyclic peptide B13, FAM-labelled (peptide)
# chain: [dE]H[dF][dE]HA[Dap][dF][2Nal]R[dR]R[Dap]-{βAla-βAla-Lys(FAM)}
# modifications: linker 7-13 via TMA; reading uncertain; also: TMA third attachment point not given here
# B2: macrocyclic peptide B17, FAM-labelled (peptide)
# chain: [Phg][dF]GDY[Dap]F[d2Nal][dR]R[dR]R[Dap]-{βAla-βAla-Lys(FAM)}
# modifications: linker 6-13 via TMA; reading uncertain; also: TMA third attachment point not given here
# B3: macrocyclic peptide B22, FAM-labelled (peptide)
# chain: [dV][Orn][dN]H[dA][Dap]F[d2Nal][dR]R[dR]R[Dap]-{βAla-βAla-Lys(FAM)}
# modifications: linker 6-13 via TMA; reading uncertain; also: TMA third attachment point not given here
# B4: macrocyclic peptide B7-18, FAM-labelled (peptide)
# chain: YHQ[dP]S[dL][Dap][Phe(4-F)][d2Nal][dR]R[dR]R[Dap]-{βAla-βAla-Lys(FAM)}
# modifications: linker N-7-14 via Trimesoyl; not fully specified (N-terminus)
# B5: macrocyclic peptide B7-15, FAM-labelled (peptide)
# chain: YHQ[dP]S[dL][Dap][hPhe][d2Nal][dR]R[dR]R[Dap]-{βAla-βAla-Lys(FAM)}
# modifications: linker N-7-14 via Trimesoyl; not fully specified (N-terminus)
# B6: macrocyclic peptide B7-11, FAM-labelled (peptide)
# chain: YHQ[dP]S[dL][Dap]F[d2Nal][dR]R[dA]R[Dap]-{βAla-βAla-Lys(FAM)}
# modifications: linker 7-14 via TMA; reading uncertain; also: TMA third attachment point not given here
# B7: macrocyclic peptide B7-6, FAM-labelled (peptide)
# chain: AHQ[dP]S[dL][Dap]F[d2Nal][dR]R[dR]R[Dap]
# modifications: linker 7-14 via TMA; not fully specified (C-terminus); reading uncertain
# B8: macrocyclic peptide B7-14, FAM-labelled (peptide)
# chain: YHQ[dP]S[dL][Dap][Phg][d2Nal][dR]R[dR]R[Dap]-{βAla-βAla-Lys(FAM)}
# modifications: linker N-7-14 via Trimesoyl; not fully specified (N-terminus)
# B9: macrocyclic peptide B7-3, FAM-labelled (peptide)
# chain: YHQ[dA]S[dL][Dap]F[d2Nal][dR]R[dR]R[Dap]-{βAla-βAla-Lys(FAM)}
# modifications: linker N-7-14 via Trimesoyl; not fully specified (N-terminus)
# B10: macrocyclic peptide B7-22, FAM-labelled (peptide)
# chain: YHQ[dP]S[dL][Dap][Phe(4-Cl)][3‑(3-benzothienyl)‑D‑Ala][dR]R[dR]R[Dap]-{βAla-βAla-Lys(FAM)}
# modifications: linker N-7-14 via Trimesoyl; not fully specified (N-terminus)
# B11: macrocyclic peptide B7-2, FAM-labelled (peptide)
# chain: YHQ[dP]A[dL][Dap]F[d2Nal][dR]R[dR]R[Dap]-{βAla-βAla-Lys(FAM)}
# modifications: linker N-7-14 via Trimesoyl; not fully specified (N-terminus)
# B12: macrocyclic peptide B7-10, FAM-labelled (peptide)
# chain: YHQ[dP]S[dL][Dap]F[d2Nal][dR]A[dR]R[Dap]-{βAla-βAla-Lys(FAM)}
# modifications: linker 7-14 via TMA; reading uncertain; also: TMA third attachment point not given here
# B13: macrocyclic peptide B7-21, FAM-labelled (peptide)
# chain: YHQ[dP]S[dL][Dap][2Nal][d2Nal][dR]R[dR]R[Dap]-{βAla-βAla-Lys(FAM)}
# modifications: linker N-7-14 via Trimesoyl; not fully specified (N-terminus)
# B14: macrocyclic peptide B7-9, FAM-labelled (peptide)
# chain: YHQ[dP]S[dL][Dap]F[d2Nal][dA]R[dR]R[Dap]
# modifications: linker 7-14 via TMA; not fully specified (C-terminus); reading uncertain
# B15: macrocyclic peptide B7-1, FAM-labelled (peptide)
# chain: YHQ[dP]S[dA][Dap]F[d2Nal][dR]R[dR]R[Dap]-{βAla-βAla-Lys(FAM)}
# modifications: linker 7-14 via TMA; reading uncertain; also: TMA third attachment point not given here
# B16: macrocyclic peptide B7-19, FAM-labelled (peptide)
# chain: YHQ[dP]S[dL][Dap][Phe(3,4-Cl2)][d2Nal][dR]R[dR]R[Dap]-{βAla-βAla-Lys(FAM)}
# modifications: linker N-7-14 via Trimesoyl; not fully specified (N-terminus)
# B17: macrocyclic peptide B7-20, FAM-labelled (peptide)
# chain: YHQ[dP]S[dL][Dap][Phe(4-CF3)][d2Nal][dR]R[dR]R[Dap]-{βAla-βAla-Lys(FAM)}
# modifications: linker N-7-14 via Trimesoyl; not fully specified (N-terminus)
# B18: macrocyclic peptide B7-23, FAM-labelled (peptide)
# chain: YHQ[dP]S[dL][Dap][Phe(4-Cl)][d1Nal][dR]R[dR]R[Dap]-{βAla-βAla-Lys(FAM)}
# modifications: linker N-7-14 via Trimesoyl; not fully specified (N-terminus)
# B19: macrocyclic peptide B7-5, FAM-labelled (peptide)
# chain: YAQ[dP]S[dL][Dap]F[d2Nal][dR]R[dR]R[Dap]-{βAla-βAla-Lys(FAM)}
# modifications: linker N-7-14 via Trimesoyl; not fully specified (N-terminus)
# B20: macrocyclic peptide B7-4, FAM-labelled (peptide)
# chain: YHA[dP]S[dL][Dap]F[d2Nal][dR]R[dR]R[Dap]-{βAla-βAla-Lys(FAM)}
# modifications: linker N-7-14 via Trimesoyl; not fully specified (N-terminus)
# B21: macrocyclic peptide B7-13, FAM-labelled (peptide)
# chain: YHQ[dP]S[dL][Dap][Phe(4-Me)][d2Nal][dR]R[dR]R[Dap]-{βAla-βAla-Lys(FAM)}
# modifications: linker N-7-14 via Trimesoyl; not fully specified (N-terminus)
# B22: macrocyclic peptide B7-17, FAM-labelled (peptide)
# chain: YHQ[dP]S[dL][Dap][Phe(3-Cl)][d2Nal][dR]R[dR]R[Dap]-{βAla-βAla-Lys(FAM)}
# modifications: linker N-7-14 via Trimesoyl; not fully specified (N-terminus)
# B23: macrocyclic peptide B7-12, FAM-labelled (peptide)
# chain: YHQ[dP]S[dL][Dap]F[d2Nal][dR]R[dR]A[Dap]-{βAla-βAla-Lys(FAM)}
# modifications: linker N-7-14 via Trimesoyl; not fully specified (N-terminus)
# B24: FAM-labeled macrocyclic peptide B7-131-5 (peptide)
# chain: YH[dP][d2Nal]DA[dL][Dap][Phe(4-Cl)][d2Nal][dR]R[dR]R[Dap]-{βAla-βAla-Lys(FAM)}
# modifications: linker 8-15 via TMA; reading uncertain; also: TMA third attachment point not given here
# B25: FAM-labeled macrocyclic peptide B7-133-9 (peptide)
# chain: Y[dV][dL][dY][Phe(4-F)][dL][Dap][Phe(4-Cl)][d2Nal][dR]R[dR]R[Dap]-{βAla-βAla-Lys(FAM)}
# modifications: linker 7-14 via TMA; reading uncertain; also: TMA third attachment point not given here
# B26: FAM-labeled macrocyclic peptide B7-131-4 (peptide)
# chain: Y[Phe(4-F)]D[Phg][dY][βAsp][dL][Dap][Phe(4-Cl)][d2Nal][dR]R[dR]R[Dap]-{βAla-βAla-Lys(FAM)}
# modifications: linker 8-15 via TMA; reading uncertain; also: TMA third attachment point not given here
# B27: FAM-labeled macrocyclic peptide B7 (peptide)
# chain: YHQ[dP]S[dL][Dap]F[d2Nal][dR]R[dR]R[Dap]-{βAla-βAla-Lys(FAM)}
# modifications: linker 7-14 via TMA; reading uncertain; also: TMA third attachment point not given here
# B28: FAM-labeled macrocyclic peptide B7-133-3 (peptide)
# chain: Y[dF]D[Nle][dN][dL][Dap][Phe(4-Cl)][d2Nal][dR]R[dR]R[Dap]-{βAla-βAla-Lys(FAM)}
# modifications: linker 7-14 via TMA; reading uncertain; also: TMA third attachment point not given here
# B29: FAM-labeled macrocyclic peptide B7-133-8 (peptide)
# chain: Y[d2Nal]Q[D‑beta‑homoalanine][dP][dL][Dap][Phe(4-Cl)][d2Nal][dR]R[dR]R[Dap]-{βAla-βAla-Lys(FAM)}
# modifications: linker 7-14 via TMA; reading uncertain; also: TMA third attachment point not given here
# B30: FAM-labeled macrocyclic peptide B7-131-1 (peptide)
# chain: Y[dN][d2Nal]S[Phg][dL][dL][Dap][Phe(4-Cl)][d2Nal][dR]R[dR]R[Dap]-{βAla-βAla-Lys(FAM)}
# modifications: linker 8-15 via TMA; reading uncertain; also: TMA third attachment point not given here
# Target: T1, Ehrlichia translocated factor-1 (Etf-1) (Ehrlichia chaffeensis, UniProt Q2GG12 1-380)
# Test: fluorescence polarisation
# Details: both partners purified
row,Binder,Kd [µM]
1,B1,> 25
2,B2,> 25
3,B3,> 25

# Target: T1, Ehrlichia translocated factor-1 (Etf-1)
# Test: fluorescence polarisation
# Details: both partners purified
# Remark: another data set of the same source
row,Binder,Kd [µM]
1,B4,3 ± 0.5
2,B5,3.4 ± 0.6
3,B6,28 ± 6
4,B7,11.9 ± 3.4
5,B8,5.8 ± 0.9
6,B9,5.8 ± 0.5
7,B10,5.7 ± 0.9
8,B11,6.7 ± 0.8
9,B12,30 ± 3
10,B13,1.9 ± 0.2
11,B14,30 ± 7
12,B15,18.9 ± 6.9
13,B16,1.6 ± 0.2
14,B17,1.8 ± 0.2
15,B18,4.7 ± 0.5
16,B19,10.9 ± 1.5
17,B20,7.4 ± 0.9
18,B21,6.3 ± 0.8
19,B22,3.4 ± 0.4
20,B23,15 ± 2

# Target: Ehrlichia translocated factor-1 (Etf-1), recombinant 6×His-Etf-1 fusion protein (E. chaffeensis, UniProt Q2GG12 1-380)
# Test: fluorescence polarisation
# Details: both partners purified
row,Binder,Kd [µM]
1,B24,2.9 ± 0.4
2,B25,2.2 ± 0.3
3,B26,~1.5
4,B27,6.5 ± 0.7
5,B28,2.4 ± 0.3
6,B29,1.3 ± 0.1
7,B30,1.7 ± 0.2
